{"source": "patent US8785391B2", "about": "“Compound and method for treatment of alzheimer's disease and familial dementia” (Alphabeta AB, priority 2010, dated 2014)", "key": {"Aβ1-40 [1]": {"biological_target": "T1, Aβ1-40 (Homo sapiens, UniProt P05067)", "T1 construct": "made in house; host or cells: E. coli", "T1 sequence (P05067 672-711)": "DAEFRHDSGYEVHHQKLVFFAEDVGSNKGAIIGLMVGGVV", "experiment": "ESI-MS binding of Bri2(90-236) to Aβ1-40", "method": "Prior to electrospray ionization mass spectrometry (ESI-MS), purified Bri2(90-236) (SEQ ID NO: 2) was rebuffered into 10 mM ammonium acetate, pH 7.0, using spin columns with a 3 kDa cut-off limit (Nanosep, Pall Corp., East Hills, N.Y., USA). Protein and peptides were mixed at 22° C. directly before analysis at a final protein concentration of 20 μM and a final peptide concentration of 50 μM. Data was acquired using a QTOF Ultima API mass spectrometer (Waters, Milford, Mass., USA) equipped with a Z-spray source operated in the positive-ion mode. Samples were introduced via nano-electrospray using metal-plated borosilicate glass capillary needles (Proxeon, Denmark). The source temperature was 80° C., the capillary voltage 1.7 kV, and the cone and RF lens 1 potentials were 100 and 38 V, respectively. […]\nESI-MS binding experiments were conducted to investigate whether Bri2(90-236) can bind the peptides ABri23 and Aβ1-40. For this purpose, Bri2(90-236) was mixed with ABri23, Aβ1-40, or an equimolar mixture of ABri23 and Aβ1-40, to a final concentration of 20 μM Bri2(90-236) and 50 μM of each peptide, and analyzed by ESI-MS. Mass spectra were recorded to investigate the presence and stoichiometry of protein-peptide complexes in the gas phase."}, "Aβ1-40 [2]": {"biological_target": "T1, Aβ1-40", "experiment": "Thioflavin T fluorescence of Aβ1-40 aggregation (Example 3)", "assay_type": "biochemical", "conditions": "25 μM Aβ1-40, Aβ/Bri2(90-236) molar ratios 1:1, 2:1, 10:1, 37° C., pH 7.0, 24 h period studied", "method": "25 μM of Aβ1-40 (SEQ ID NO: 11) was incubated with or without recombinant Bri2(90-236) (SEQ ID NO: 2) in 20 mM phosphate buffer, pH 7.0 at 37° C. for 48 h, with 200 rpm agitation, at Aβ/Bri2(90-236) molar ratios of 1:1, 2:1, or 10:1. Aβ1-40 was dissolved in 100% DMSO to 250 μM stock solution, which was diluted to working concentrations. For Thioflavin T (ThT) fluorescence measurements, 10 μl aliquots were removed at different time points, 10 μM ThT (Aldrich) added, and fluorescence was measured with a […] fluorescence plate reader (GE Healthcare), emission wavelength is 480 nm, excitation wavelength 440 nm. Measurements of ThT were done in duplicates."}, "Aβ1-40 [3]": {"biological_target": "T1, Aβ1-40", "experiment": "SDS-PAGE of supernatants, soluble Aβ1-40", "assay_type": "biochemical", "conditions": "co-incubation with 25 μM Aβ1-40, 37° C., 3 weeks incubation, centrifugation at 3300 g", "method": "(§1) […] Aβ1-40 was dissolved in 100% DMSO to 250 μM stock solution, which was diluted to working concentrations. For Thioflavin T (ThT) fluorescence measurements, 10 μl aliquots were removed at different time points, 10 μM ThT (Aldrich) added, and fluorescence was measured with a […] fluorescence plate reader (GE Healthcare), emission wavelength is 480 nm, excitation wavelength 440 nm. Measurements of ThT were done in duplicates. For analysis of soluble Aβ1-40 and ultrastructure of Aβ aggregates, aliquots were removed and centrifuged at 3300 g for 9 min. The supernatant was analyzed by SDS-PAGE and pellets were resuspended in 200 μl distilled water, 2 μl of the resuspension was added onto 200 mesh copper electron microscopy grids, stained with 2% uranyl acetate for 30 s, then left to dry at 20° C. A Hitachi H 7100 microscope operated at 75 kV was used for examination and photographing."}, "Aβ1-40 [4]": {"biological_target": "T1, Aβ1-40", "experiment": "Electron microscopy of Aβ1-40 pellets", "assay_type": "biochemical", "conditions": "co-incubation with Aβ1-40, 1:1 molar ratio, 5 days", "method": "as §1"}}}
{"molecule": "Bri2(90-236): recombinant protein of residues 90-236 of human Bri2 (SEQ ID NO: 2), encompassing the Brichos domain, expressed in E. coli (protein, listed as Homo sapiens) GIKYIKDDVILNEPSADAPAALYQTIEENIKIFEEEEVEFISVPVPEFADSDPANIVHDFNKKLTAYLDLNLDKCYVIPLNTSIVMPPRNLLELLINIKAGTYLPQSYLIHEHMVITDRIENIDHLGFFIYRLCHDKETYKLQRRET", "values": [{"measurement": "Bri2(90-236)/Aβ1-40 complex in competition experiment", "setting": "Aβ1-40 [1]; 20 μM Bri2(90-236) with 50 μM Aβ1-40 and 50 μM ABri23 (equimolar)", "value": "only minor signals"}, {"measurement": "amount of Bri2(90-236)/Aβ1-40 complexes observed", "setting": "Aβ1-40 [1]; 20 μM Bri2(90-236), 50 μM freshly dissolved Aβ1-40 (2.5 fold excess)", "value": "Only small amounts"}, {"measurement": "ThT positive aggregates of Aβ1-40", "setting": "Aβ1-40 [2]", "value": "no ThT positive aggregates were found"}, {"measurement": "Aβ1-40 in solution (SDS-PAGE of supernatants)", "setting": "Aβ1-40 [3]", "value": "staying in solution"}, {"measurement": "amount of Aβ1-40 amyloid-like fibrils in pellets (electron microscopy)", "setting": "Aβ1-40 [4]", "value": "lower amounts of fibrils"}]}
